Reference: patent US20180044383A1 (ALBERT EINSTEIN COLLEGE OF MEDICINE, published 2018)
Blank lines part the entries; values can stand above or below the molecule they belong to.

How the values were obtained:
[1] = target: FKBP fused to miRFP-GAF670 (UniProt P62942); assay: cell-based or functional assay
[2] = target: FKBP fused to miRFP-GAF709 (UniProt P62942); assay: cell-based or functional assay
[3] = target: the molecule itself; assay: sedimentation velocity analytical ultracentrifugation in PBS at 20 C, self-association (no dimer)
Method: FIG. 11A-11B. Monomeric state of miRFPs confirmed by analytical ultracentrifugation analysis. miRFPs from each family of miRFPs were analyzed by sedimentation velocity analytical ultracentrifugation. miRFP670 represents miRFP proteins derived from RpBphP1; miRFP670-2 represents monomerized iRFP670 and iRFP702 derived from RpBphP6; miRFP720 represents monomerized iRFP682, iRFP713, and iRFP720 derived from RpBphP2. The proteins were analyzed at concentrations of 15 μM in PBS buffer at 20° C., the time-derivative method was used. (a) Overlay of the sedimentation coefficient distributions for iRFP670-2 (blue), iRFP713 (red), miRFP720 (magenta), and miRFP670 (cyan). (b) Overlay of the normalized best-fit sedimentation coefficient distributions. (c) The residuals corresponding to the resolved fits shown in (b).
Analytical ultracentrifugation was conducted at 20° C. and 58,000 r.p.m. with anOptima XL-I centrifuge (Beckman Coulter) using the AN-60Ti rotor and the absorption optics set to 645 nm. Sednterp v.20120828beta software was used to calculate the partial specific volume of the proteins from their sequence and the density and viscosity of the buffers. The sedimentation parameters were corrected to standard conditions (20,w) using these values. […]

[4] = target: the molecule itself; assay: size exclusion chromatography, self-association (no dimer)
Description: As a result, we have obtained miRFP670 (excitation/emission at 642 nm/670 nm) having Cys in the GAF domain and its dimmer version miRFP670v1 (Table 1). By changing Cys back to Ile and mutating residues 201 and 202, we found two red-shifted variants, miRFP703 (excitation/emission at 673 nm/703 nm) and miRFP709 (excitation/emission at 686 nm/709 nm) (Table 1). […] Absorbance of miRFPs was characterized by small side peaks at 280 nm (protein absorbance) and 390 nm (so called Soret band common to all tetrapyrrole compounds) and by large main peaks at 644 nm, 676 nm and 685 nm, indicative of the efficient BV incorporation. Monomeric states of miRFPs was confirmed by a size exclusion chromatography at 1 mg/ml as well as at concentrations as high as 30 mg/ml (FIG. 1d).
To perform size exclusion liquid chromatography a 2 ml volume of purified miRFPs was applied on the HiLoad 16/600 Superdex 200 column (GE Healthcare) equilibrated with 10 mM Hepes buffer pH 7.4 containing 50 μM EDTA, 10% glycerol, 150 mM NaCl, 1 mM DTT, 0.2 mM PMSF, 0.01% EP-40 and 0.2 mM […]. A 1 ml/min flow rate was used. The column was calibrated using the gel filtration standards (Bio-Rad Laboratories).

miRFP-GAF709 = target: T1, miRFP-GAF709; assay: bimolecular fluorescence complementation in HeLa cells (fragments as FRB and FKBP fusions, rapamycin-induced)
T1 construct: Split fragment; in the experiments it stood as a fusion (to FKBP or PCP); also called GAF fragment of miSplit709
T1 chain: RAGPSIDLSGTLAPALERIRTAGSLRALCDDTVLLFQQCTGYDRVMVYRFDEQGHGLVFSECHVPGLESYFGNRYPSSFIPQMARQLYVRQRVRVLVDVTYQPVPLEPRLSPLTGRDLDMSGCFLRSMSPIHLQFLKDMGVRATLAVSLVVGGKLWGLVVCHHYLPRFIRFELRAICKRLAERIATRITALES
Method: (§1) The two mSplits share the same miRFP-PAS fragment that can interact with either miRFP-GAF670 or miRFP-GAF709 fragments producing the fluorescence signal corresponding to complemented miSplit670 or miSplit709, respectively. (b, c) Brightness and complementation contrast of miSplit670 (b) and miSplit709 (c) in live HeLa cells. HeLa cells were transiently transfected with the plasmids encoding the indicated proteins. Rapamycin (Rapa) was added where indicated. The mean fluorescence intensities of cells were analyzed by flow cytometry. Error bars, s.d. (n=3; transfection experiments). (d) Two-color imaging of two alternative PPIs in one cell. […] MCP and PCP are fused with two fragments of mi Split reporter. mRNA serves as a scaffold to bring two split fragments together and reconstitute fluorescence. […] The mean fluorescence intensities of cells were analyzed by flow cytometry. […] (g) Representative images of live HeLa cells analyzed in (f). […]
(§2) We first characterized miSplits using a rapamycin-induced PPI of FRB and FKBP proteins. We fused FRB to the miRFP-PAS domain and FKBP to either miRFP-GAF670 or miRFP-GAF709 domains and tested their effective brightness and BiFC contrast (the ratio between a stimulus-induced fluorescence signal and a fluorescence signal originated from non-specific complementation) in mammalian cells.

miRFP-GAF670 = target: T2, miRFP-GAF670; assay: as above
T2 construct: Split fragment; in the experiments it stood as a fusion (to FKBP or PCP); also called GAF fragment of miSplit670
T2 chain: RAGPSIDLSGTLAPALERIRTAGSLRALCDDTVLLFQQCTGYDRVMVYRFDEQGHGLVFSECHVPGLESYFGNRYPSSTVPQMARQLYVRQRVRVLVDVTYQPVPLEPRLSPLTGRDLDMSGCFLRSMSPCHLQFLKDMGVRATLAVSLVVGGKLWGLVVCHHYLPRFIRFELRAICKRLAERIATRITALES
Method: as §1, §2

BiFC contrast 0.5 h after rapamycin addition [1]: 2 fold | BiFC contrast (the ratio between a stimulus-induced fluorescence signal and a fluorescence signal originated from non-specific complementation), miSplit670, HeLa cells, flow cytometry, 50 nM rapamycin [1]: > 20 fold | effective brightness of the complemented miSplit670 relative to parental full-length miRFP [1]: > 40% | BiFC contrast 0.5 h after rapamycin addition [2]: 2 fold | BiFC contrast (the ratio between a stimulus-induced fluorescence signal and a fluorescence signal originated from non-specific complementation), miSplit709, HeLa cells, flow cytometry, 50 nM rapamycin [2]: > 20 fold | effective brightness of the complemented miSplit709 relative to parental full-length miRFP [2]: > 40%
Molecule: FRB fused to miRFP-PAS (from UniProt P42345 2021-2113)

B1: miRFP720 (other)
chain: MAEGSVARQPDLLTCDDEPIHIPGAIQPHGLLLALAADMTIVAGSDNLPELTGLAIGALIGRSAADVFDSETHNRLTIALAEPGAAVGAPITVGFTMRKDAGFIGSWHRHDQLIFLELEPPQRDVAEPQAFFRRTNSAIRRLQAAETLESACAAAAQEVRKITGFDRVMIYRFASDFSGSVIAEDRCAEVESKLGLHYPASFIPAQARRLYTINPVRIIPDINYRPVPVTPDLNPVTGRPIDLSFAILRSVSPNHLEFMRNIGMHGTMSISILRGERLWGLIVCHHRTPYYVDLDGRQACKRVAERLATQIGVMEE
modifications: biliverdin (BV) chromophore
notes: Monomerized version of dimeric iRFP720 (derived from RpBphP2); also called monomerized iRFP720
binding result [3]: no binding (tested: 15 µM)

B2: miRFP670-2 (other)
chain: MARKVDLTSCDREPIHIPGSIQPCGCLLACDAQAVRITRITENAGAFFGRETPRVGELLADYFGETEAHALRNALAQSSDPKRPALIFGWRDGLTGRTFDISLHRHDGTSIIEFEPAAAEQADNPLRLTRQIIARTKELKSLEEMAARVPRYLQAMLGYHRVMLYRFADDGSGMVIGEAKRSDLESFLGQHFPASLVPQQARLLYLKNAIRVVSDSRGISSRIVPEHDASGAALDLSFAHLRSISPCHLEFLRNMGVSASMSLSIIIDGTLWGLIICHHYEPRAVPMAQRVAAKRFAERLSTHFTAAHHQR
modifications: biliverdin (BV) chromophore
notes: Monomerized version of dimeric iRFP670 (derived from RpBphP6); also called monomerized iRFP670
binding result [3]: no binding (tested: 15 µM)

B3: miRFP670 (other)
chain: MVAGHASGSPAFGTASHSNCEHEEIHLAGSIQPHGALLVVSEHDHRVIQASANAAEFLNLGSVLGVPLAEIDGDLLIKILPHLDPTAEGMPVAVRCRIGNPSTEYCGLMHRPPEGGLIIELERAGPSIDLSGTLAPALERIRTAGSLRALCDDTVLLFQQCTGYDRVMVYRFDEQGHGLVFSECHVPGLESYFGNRYPSSTVPQMARQLYVRQRVRVLVDVTYQPVPLEPRLSPLTGRDLDMSGCFLRSMSPCHLQFLKDMGVRATLAVSLVVGGKLWGLVVCHHYLPRFIRFELRAICKRLAERIATRITALES
modifications: biliverdin (BV) chromophore; filing says miRFP670 has the BV-binding Cys in the GAF domain (-PIH- motif Ile replaced by Cys)
notes: Monomeric near-infrared fluorescent protein engineered from the PAS-GAF domains of RpBphP1; also called mRFP670
binding result [4]: no binding (tested: 30 mg/ml)

B4: miRFP703 (other)
chain: MVAGHASGSPAFGTASHSNCEHEEIHLAGSIQPHGALLVVSEHDHRVIQASANAAEFLNLGSVLGVPLAEIDGDLLIKILPHLDPTAEGMPVAVRCRIGNPSTEYCGLMHRPPEGGLIIELERAGPSIDLSGTLAPALERIRTAGSLRALCDDTVLLFQQCTGYDRVMVYRFDEQGHGLVFSECHVPGLESYFGNRYPSSLVPQMARQLYVRQRVRVLVDVTYQPVPLEPRLSPLTGRDLDMSGCFLRSMSPIHLQFLKDMGVRATLAVSLVVGGKLWGLVVCHHYLPRFIRFELRAICKRLAERIATRITALES
modifications: biliverdin (BV) chromophore bound to the conserved Cys residue in the PAS domain
notes: Engineered from RpBphP1 PAS-GAF
binding result [4]: no binding (tested: 30 mg/ml)

B5: miRFP709 (other)
chain: MVAGHASGSPAFGTASHSNCEHEEIHLAGSIQPHGALLVVSEHDHRVIQASANAAEFLNLGSVLGVPLAEIDGDLLIKILPHLDPTAEGMPVAVRCRIGNPSTEYCGLMHRPPEGGLIIELERAGPSIDLSGTLAPALERIRTAGSLRALCDDTVLLFQQCTGYDRVMVYRFDEQGHGLVFSECHVPGLESYFGNRYPSSFIPQMARQLYVRQRVRVLVDVTYQPVPLEPRLSPLTGRDLDMSGCFLRSMSPIHLQFLKDMGVRATLAVSLVVGGKLWGLVVCHHYLPRFIRFELRAICKRLAERIATRITALES
modifications: biliverdin (BV) chromophore bound to the conserved Cys residue in the PAS domain
notes: as for B4
binding result [4]: no binding (tested: 30 mg/ml)

binding result (miRFP-GAF709): binds | binding result (miRFP-GAF670): binds
B6: miRFP-PAS (other)
chain: MVAGHASGSPAFGTASHSNCEHEEIHLAGSIQPHGALLVVSEHDHRVIQASANAAEFLNLGSVLGVPLAEIDGDLLIKILPHLDPTAEGMPVAVRCRIGNPSTEYCGLMHRPPEGGLIIELERAGP
notes: Split fragment; in the experiments it stood as a fusion (to FRB or to MCP); also called miRFP670-PAS domain; PAS fragment of miSplit670 and miSplit709
